B1: ADI-41415 (antibody, V domains shown)
VH: QVTLKESGPALVKPTQTLTLTCTFSGFSLSTSRTRVSWIRQPPGKALEWLARVDWDDDKFYNPVLKTRLSISKDPSKNQVVLTMTNVDPVDTATYYCVRMAHYGSGGYYVEYFQDWGQGTLVTVSS
VL: DIQLTQSPASLSASAGDRVTITCRASQNINRYLNWYQQQSGKAPKLLIYAASILQSGVPSRFSGSGSGTDFTLTITSLQPEDFAIYYCQQSYTTPKYTFGQGTKVEIK
notes: IgG1
B2: ADI-41445 (antibody, V domains shown)
VH: QVQLVQSGAEVKRPGSSVKVSCKAFGGSFSNYAINWVRQAPGQGLEWMGGISPVLGTAIYAKRFQGKVTITADKFANTAYMDLSSLRFEDTAVYYCARSPPHVEFPLTKWFDPWGQGTLVTVSS
VL: EIVMTQSPGTLSLSPGERATLSCRASQSVNSGYLAWYQHKPGRAPRLLIYGASNRATGVPDRFSGSGSGTDFTLTISRLEPEDFAVYYCQQYDNSLFTFGPGTKVDIK
notes: IgG1
B3: ADI-41440 (antibody, V domains shown)
VH: EVQLVESGGGLVKPGGSLRLSCAVSGFTFSDYTMNWVRQAPGKGLEWVSSISGSGTYIYYGDSVKGQFTISRDNAKNSLYLQMNSLRAEDTAVYYCARELPAKTIFGVDFLGGTTAYDCWGQGTPVTVSS
VL: EIVLTQSPATLSVSPGERATLSCRASQSVSSNLAWYQQKPGQAPRLLIYSATTRATGVPARFSGSGSGTEFTLTISSLRSEDFAVYYCQQYNNGGTFGPGTKVEIK
notes: IgG1; also called Ab 724
B4: ADI-41444 (antibody, V domains shown)
VH: EVQLVESGPRLVKPSQTLSLTCTVSGGSIGTGDYHWTWIRQSPGKGLEWIGNIYYNGRTFYNPSLKGRGSISRDASKNQFSLNLSSVSAADTAVYYCARDRAAKGFDHWGQGTLVTVSS
VL: DIQLTQSPSTLSASVGDRVTITCRASQNINGWLAWYQQKPGRVPKLLIYKASTLESGVPSRFSGSASGTEFTLTINNLLPDDFATYYCQQYNDYPYTFGQGTKVEIK
notes: IgG1
B5: ADI-41436 (antibody, V domains shown)
VH: EVQLLESGGGVVQPGRSLRLSCAASGFTFSDYAMHWVRQAPGKGLEWVALISFDGSNEYYADSVKGRFTISRDNSRNTVYLQVNTLRPDDTAVFYCARDSHLRLTTRGWGSFDYWGQGTLVTVSS
VL: NFMLTQPHSVSESPGKTVTIACTRSSGSIARNYVQWYQQRPGRSPTMVIYEDNQRPSGVPDRFSGSIDTSSNSASLTISGLKTEDEADYYCQPYDPDNLVFGGGTKLTVL
notes: IgG1; also called Ab 720
B6: ADI-41443 (antibody, V domains shown)
VH: EVQLVESGGGVVQPGKSLRLSCAASGFTFSSYAMHWVRQAPGKGLEWVSVIWYEDSDKYYGDSVKGRFTISRDNSKNTLYLQMNSLRAEDTAVYYCARKSGGFGGLDYWGQGTLVTVSS
VL: DIVMTQSPLSLPVTPGEPASISCKSSQSLLTANGYNYLDWYVQKPGQSPHVLISLGSNRASGVPDRFSGSGSGTDFTLKISRVEAEDVGVYYCMQAIETPITFGQGTRLEIK
notes: IgG1; also called Ab 727
B7: ADI-41432 (antibody, V domains shown)
VH: QVQLVQSGAEVKKPGYSVKVSCKASGGTFSTFGISWVRQAPGLGLEWMGGIIPLFGTADYSKKYQGRVTITADESTSTGYMELNSLTPEDTAVYYCARSPGHLWSRYDAFEVWGQGTTVTVSS
VL: QPVLTQPRSVSGSPGQSVTISCSGTSSDVGGYNYVSWYQQYPGKAPKLIIYDVNKRPSGVPDRFSGSKSDNTASLTISGLQADDESDYFCCSYAGSHTFEVFGTGTKVTVL
notes: IgG1
B8: ADI-41448 (antibody, V domains shown)
VH: TVQLVESGAEVKSPGSSVRVSCQASGGSSNSYAISWVRQAPGQGLEWMGMISPLFGTTRFSQRFQGRVTITADKSTSTAYMELSSLNSEDTALYYCARGRFDFWSGPTRFYYTMDVWGQGTMVTVSS
VL: QSVLIQPASVSGSPGQSITISCSGTSSDIGGYNYVSWYQQHPGKAPKLLISDVTDRPSGISDRFSGSKSGTSASLTISGLQADDEADYYCTSYTTSSTWVFGGGTKLTVL
notes: IgG1
B9: ADI-41405 (antibody, V domains shown)
VH: EVQLLESGGGLVQPGGSLRLSCAASGFSFSIYSMNWVRQAPGKGLEWISYITSTGSPTYYADSVKGRFTISRDNAKNSLYLQMSSLRAEDTAVYYCVTYCSSSSCPAEFDYWGQGTLVTVSS
VL: EIVLTQSPATLSLSPGERATLSCRASQSVNSYLAWYQQKPGQAPRLLIYDASNRATGIPARFSGSGSGTDFTLTISSLEAEDFAVYYCQHRNNWPALTFGGGTKVEIK
notes: IgG1
B10: ADI-41418 (antibody, V domains shown)
VH: EVQLVESGGGLVKPGGSLRLSCAASGLSFTDAWMGWVRQAPGKGLEWVGHIKKKTDYGPTAYAAPVRGRFTVSRDDSKNTLYLQMTSLKTEDTAVYYCITERGYNFGYNDYFGVDVWGQGTLVTVSS
VL: QPGLTQPPSVSVSPGQTARITCSGDALPKKYAYWYQQKSGQAPVMIIYEDNKRPSGIPERFSGSTSGTMATLTISGAQMEDEADYYCFSTDSGDDQSGVFGGGTRLTVL
notes: IgG1
B11: ADI-41407 (antibody, V domains shown)
VH: EVQLVESGGGLVQPGGSLRLSCAASGFTFSSNAMSWVRQAPGKGLEWVSYISGGSATKSYADSVKGRFTISRDNSKNTLYLQMKSLRAEDTAVYYCVGGSAYYSGFDYWGQGTLVTVSS
VL: DIVMTQSPSSLSASVGDRVTISCRASQDIRNYLAWYQQKPGKVPNLLIYAASTLESGVPSRFSGSGYGTDFTLTISGLQPEDVATYYCQKYDSAPPFTFGPGTKVDIK
notes: IgG1
B12: ADI-41425 (antibody, V domains shown)
VH: EVQLLESGPAVVKPTQTLTLTCTVSGLSLSSPRMSVSWIRQPPGKGLEWLARIDWDGDKYYGTSLKTRLSISKDTSKNQVVLTMTNMDPVDTGTYYCAQTSIYASNAYYLARLDPWGQGMLVTVSS
VL: EIVMTQSPSLLSASVGDRVTITCRASQNIATYLNWYQQKPGKAPRLLIYAASNLQSGVPSGFSGSGSGTVFTLTISSLQPEDFATYFCQQSYETSLTFGGGTKVEIK
notes: IgG1
B13: ADI-41427 (antibody, V domains shown)
VH: QVQLVESGPGLVKPSETLSLTCTVSGGSIGGYYWSWIRQPPGKGLEWIGYMYYSGSTNYNPSLKSRVTMSVDTSKNQFSLKLTSVTAADTAVYYCARVLRFLVGGMDVWGQGTTVTVSS
VL: QSVLIQPASVSGSPGQSITISCTGTSSDVGGYNYVSWYQQHPGKAPKLIIYEVSNRPSGVSNRFSGSKSGNTASLTISGLQAEDEADYYCNSYTTIATLVFGTGTKVTVL
notes: IgG1
B14: ADI-41403 (antibody, V domains shown)
VH: EVQLVESGGGLVKPGGSLRLSCAASGFTFGTYTMNWVRQAPGKGLEWVSSISSSSSHIYYADSVKGRFTISRDNARKALYLQMNSLRPEDTAVYFCARFLGDYGGDGNTYYYYYGMDVWGQGTTVTVSS
VL: EIVMTQSPLSLPVTPGEPASISCRSSQSLLHSNGKNYLDWYLQKPGQSPQLLIHLGSNRASGVPDRFSGSGSGTDFTLQISRVEAEDVGVYYCMQALQTPTFGGGTKLEIK
notes: IgG1
B15: ADI-41446 (antibody, V domains shown)
VH: EVQLLESGGGLVQPGGSLRLSCAASGFTYYSYAMNWVRQAPGKGLEWVSAISGGGDNTFYAESVKGRFTISRDNAKNTLYLQMDSLRAEDTAVYYCAKDLQGYTSLYCFDYWGQGTLVTVSS
VL: EIVMTQSPATLSLSPGERAALSCRASQSVFNYVAWYQQKPGQAPRLLIYDTSKRATGIPARFSGSGSGTDFTLTISSLEPEDFAVYYCQHRYNWPGLIFGGGTKVEIK
notes: IgG1; also called Ab 730
B16: ADI-41429 (antibody, V domains shown)
VH: QVQLVQSGAEVKKPGSSVKVSCKASGGTFSSYAISWVRQAPGQGLEWMGGIIPIFGTVNYAQKFPGRVTITADESTSTAYMELSSLRSEDTAIYYCARDSPSYTGSLLFSQYYYGMDVWGQGTTVTVSS
VL: QPVLTQPASVSGSPGQSITISCTGTSSDVGGYDYVSWYQHHPGKAPKLMIYEVSNRPSGVSNRFSGSKSGNTASLTISGLQAEDEADYYCSSFTTSSPRVFGTGTKLTVL
notes: IgG1; also called Ab 714
B17: ADI-41404 (antibody, V domains shown)
VH: QVQLVQSGAEVKKPGSSVKVSCKASGGTFSSYGISWVRQAPGQGLEWMGGIIPIFGTVSYAQKFRGRLTITAHEPTSTAYMDLSSLRSEDTAVYYCARINGRGWELSSLNYYYGMDVWGQGTTVTVSS
VL: EIVLTQSPGTLSLSPGERGTLSCRASQSVASSYLAWYQQKPGQAPRLLIYGATSRATGIPDRFSGSGSGTDFTLTISRLEPEDFAVYYCQQYGSSLFTFGGGTKVDIK
notes: IgG1; also called Ab 696
B18: ADI-41414 (antibody, V domains shown)
VH: EVQLLESGGGLAQPGRSLKVSCAASGVTVTSTYMGWVRQAPGKGLQWVSVIYSDGTTYYADSVKGRFTISRDHYKNTLYLQMNSLRAEDTALYYCARGNRRTDFGYWGQGTLVTVSS
VL: EIVMTQSPSTLSASVGDRVTITCRASQTISNWLAWYQQKPGKAPKLLIYQASTLESGVPSRFSGSGSGTEFTLTISSLQPDDFATYYCQQYNTYYTFGPGTKVEIK
notes: IgG1
B19: ADI-41431 (antibody, V domains shown)
VH: QVQLVQSGAEVKKPGASVRVSCTASGYRFFTYGITWVRQAPGQGLEWMGWISAYNGNTKFAQKFQGRLTMTTDAPTSTADMELRGLRSDDTAVYYCAREEGGYHGTGSNNYWGQGTLVTVSS
VL: QSVLTQPPSVSAAPGQKVTISCSGSGSNVGGNDVSWYQQFPGTAPKLLIYDNSKRPSGIPDRFSGSKSGTSATLVITGLQTGDEADYYCGTWDSSLSVGVFGTGTKLTVL
notes: IgG1; also called Ab 715

Tests used:
[1] = biological target: RSV fusion glycoprotein (RSV F) on RSV-A2 virus (respiratory syncytial virus, UniProt P03420 26-574); test: cell-based or functional assay
[2] = biological target: RSV prefusion F (preF), DS-Cav1 (respiratory syncytial virus, UniProt P03420 26-513); test: BLI, IgG on sensor, 100 nM antigen
[3] = biological target: RSV postfusion F (postF), F deltaFP (respiratory syncytial virus, UniProt P03420 26-513); test: BLI, IgG on sensor, 100 nM antigen

Row | Binder | Neutralization IC50 (RSV subtype A) [1] [µg/mL] | Kd [2] [nM] | Kd [3] [nM]
1 | B1 | > 25 | 1.08 | 0.644
2 | B2 | > 25 | 3.04 | 0.772
3 | B3 | > 25 | 3.18 | 1.23
4 | B4 | > 25 | 3.01 | 0.541
5 | B5 | > 25 | 1.1 | 0.237
6 | B6 | > 25 | 2.4 | 0.373
7 | B7 | > 25 | 2.05 | 0.286
8 | B8 | > 25 | 2.75 | 0.428
9 | B9 | > 25 | 2.72 | 0.458
10 | B10 | > 25 | 1.58 | 0.341
11 | B11 | > 25 | 2.08 | 0.371
12 | B12 | > 25 | 1.14 | 0.496
13 | B13 | > 25 | 2.7 | 0.917
14 | B14 | > 25 | 3.04 | 0.841
15 | B15 | > 25 | 3.6 | 0.722
16 | B16 | > 25 | 3.62 | 1
17 | B17 | > 25 | 47.4 | 13.6
18 | B18 | > 25 | 2.7 | 1.1
19 | B19 | 2.38 | 0.744 | 0.345

From patent US20260258115A1 (MAPP BIOPHARMACEUTICAL, published 2026)
